{
  "source": "paper PMC12098869",
  "about": "“An mRNA-display derived cyclic peptide scaffold reveals the substrate binding interactions of an N-terminal cysteine oxidase” (Nature Communications, 2025)",
  "molecules": {"B1": {"name": "Cyclic peptide CP6 (peptide)", "peptide": "{CH2CO}-YIVKTFWLGSHRQC-NH2", "modifications": "thioether N-14", "SMILES": "CC[C@H](C)[C@@H]1NC(=O)[C@H](Cc2ccc(O)cc2)NC(=O)CSC[C@@H](C(N)=O)NC(=O)[C@H](CCC(N)=O)NC(=O)[C@H](CCCNC(=N)N)NC(=O)[C@H](Cc2c[nH]cn2)NC(=O)[C@H](CO)NC(=O)CNC(=O)[C@H](CC(C)C)NC(=O)[C@H](Cc2c[nH]c3ccccc23)NC(=O)[C@H](Cc2ccccc2)NC(=O)[C@H]([C@@H](C)O)NC(=O)[C@H](CCCCN)NC(=O)[C@H](C(C)C)NC1=O", "notes": "selected by RaPID mRNA display against ADO; source: synthetic peptide (SPPS)"}, "B2": {"name": "CP6-K4A (peptide)", "peptide": "{CH2CO}-YIVATFWLGSHRQC", "modifications": "thioether N-14", "notes": "the substitution K4A is to be applied to them; Single amino acid substituent of CP6; source: synthetic peptide"}},
  "key": {"[1]": {"biological_target": "T1, human ADO (Homo sapiens, UniProt Q96SZ5)", "T1 construct": "Full-length human ADO (Uniprot ID: Q96SZ5) was cloned; made in house; host or cells: E. coli Rosetta2(DE3)", "T1 sequence (Q96SZ5 1-270)": "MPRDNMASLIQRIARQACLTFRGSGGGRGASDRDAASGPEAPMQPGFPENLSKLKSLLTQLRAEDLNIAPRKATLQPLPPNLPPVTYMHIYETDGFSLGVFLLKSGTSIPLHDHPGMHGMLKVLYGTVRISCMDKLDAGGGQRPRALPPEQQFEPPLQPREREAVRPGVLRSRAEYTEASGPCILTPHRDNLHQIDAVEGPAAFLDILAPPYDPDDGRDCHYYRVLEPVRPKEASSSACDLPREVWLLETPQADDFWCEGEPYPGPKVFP", "experiment": "ADO activity inhibition assay (RGS5_2-15 oxidation monitored by LCMS): single-dose and IC50", "type": "biochemical", "protocol": "We next tested the ability of the CPs to inhibit ADO activity. ADO activity was measured with and without 10 μM of each CP using an established stopped assay in which the oxidation of a representative substrate (RGS5_2-15; a synthetic peptide corresponding to the methionine excised N-terminus of RGS5, residues 2 to 15) was monitored by liquid chromatography coupled mass spectrometry (LCMS)[7],[35],[36].\nThe enzymatic activity of ADO was examined by incubating between 0–1000 μM peptide substrates with 0.1 μM ADO in a bench-top thermomixer at 37 °C for 45 seconds. Otherwise stated, the reaction buffer contained 50 mM Tris pH 7.5, 50 mM NaCl, and 5 mM TCEP. The reactions were quenched by mixing the sample 1:10 with 1% formic acid (v/v).\nPeptide samples were injected onto a Chromolith® RP-18 Endcapped HPLC Columns (100–2 mm; Merck), heated to 40 °C and eluted at 0.3 ml/min using a gradient of 95% deionised water supplemented with 0.1% (v/v) formic acid to 95% acetonitrile. Oxidation was monitored by an ultra-high-performance liquid chromatography (UHPLC) mass spectrometry (MS) using ExionLC AD (Sciex) and SelexION (Sciex) mass spectrometer operated in a positive electrospray time-of-flight ( + ESI-TOF) mode. Instrument parameters, data acquisition and data processing were controlled by Analyst software (Sciex). The peptide data processing was performed using Skyline software. Turnover was quantified by comparing the areas underneath the product and substrate ions extracted from the total ion current chromatogram. All figures and parameters were generated using GraphPad Prism 9."}, "[2]": {"biological_target": "T1, human ADO", "experiment": "SPR single-cycle kinetic (SCK) binding of cyclic peptides to ADO", "conditions": "1:1 binding model, 4 °C, geometric mean of a minimum of three independent measurements (n = 3) with standard error", "from_the_text": "After six cycles, clear enrichment of several CPs was observed by next-generation sequencing. The most enriched CPs (CP1-8, numbered according to their percentage enrichment in the final selection round) were selected for subsequent analysis (Table 1). CP1, 5, 6 and 7 are related in sequence, while CP2, 3, 4, and 8 are unique compositions (Fig. 1b). These CPs were subsequently produced by solid-phase peptide synthesis (SPPS) and analysed by surface plasmon resonance (SPR) using single cycle kinetic (SCK) analysis to confirm and quantify binding to ADO. ADO could interact with each CP to varying degrees (Supplementary Fig. 4, Table 1, Fig. 1dleft).\nSPR measurements were made using a Biacore T200 (Cytiva) instrument and data were analysed using the Biacore Insight Evaluation Software. Biotinylated-ADO was immobilised on a Biotin CAP chip (Cytiva) with a target density of ∼2500–3000 RU and peptide/protein substrates were injected over the chip. Experiments were conducted at 4 °C using both multi-cycle (fit using the equilibrium steady state affinity 1:1 binding model) and single-cycle kinetics mode (fit using a 1:1 binding model). A buffer comprising 20 mM HEPES pH 7.5, 500 mM NaCl, 10 mM DTT, and 0.1% (v/v) tween-20 was used as the running buffer at a flow rate of 50 μL/minute."}, "[3]": {"biological_target": "2-aminoethanethiol dioxygenase (ADO), wild type, biotinylated (pQE80L-Navi-ADO) (human)", "experiment": "SPR; multi-cycle, equilibrium steady state affinity 1:1 binding model; biotinylated ADO or variant immobilised on a Biotin CAP chip (~2500-3000 RU), peptide injected; 4 °C; 20 mM HEPES pH 7.5, 500 mM NaCl, 10 mM DTT, 0.1% (v/v) tween-20; 50 μL/minute"}, "[4]": {"biological_target": "ADO-D206N, biotinylated (pQE80L-Navi-ADO) (human) (UniProt Q96SZ5)", "experiment": "SPR; single-cycle kinetics (SCK), 1:1 binding model; biotinylated ADO or variant immobilised on a Biotin CAP chip, peptide injected at 25.6, 64, 160, 400, 1000 nM; 4 °C; 20 mM HEPES pH 7.5, 500 mM NaCl, 10 mM DTT, 0.1% (v/v) tween-20; 50 μL/minute"}, "[5]": {"biological_target": "T2, 2-aminoethanethiol dioxygenase (ADO), full-length human, N-terminally His-tagged and biotinylated … (human, UniProt Q96SZ5 1-270, biotin (biotinylated during expression, 0.2 mM biotin added))", "T2 construct": "2-aminoethanethiol dioxygenase (ADO), human, UniProt Q96SZ5, full length; Immobilised through its biotin on a Biotin CAP chip for SPR; also called wild type ADO; Biotinylated-ADO; source: E. coli Rosetta2(DE3), purified (Ni-NTA, SEC); not shown: biotinylation tag (from the vector pQE80L-Navi), N-terminal, kept", "T2 sequence (looked up)": "T1 sequence (Q96SZ5 1-270)", "experiment": "SPR; single-cycle kinetics (1:1 binding model); biotinylated ADO immobilised on a Biotin CAP chip (~2500-3000 RU), cyclic peptide injected; Biacore T200, 4 °C; 20 mM HEPES pH 7.5, 500 mM NaCl, 10 mM DTT, 0.1% tween-20; 50 µL/minute; each cell is one of three independent measurements", "conditions": "both partners purified", "how_it_was_run": "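Biotinylated full-length human ADO was made in E. coli with a His tag, then purified by nickel affinity and gel filtration. It was captured on a Biotin CAP chip at about 2500–3000 RU in a Biacore T200, and cyclic peptides were flowed over it. The run was at 4 °C in HEPES pH 7.5 buffer with 500 mM NaCl, DTT and tween-20, at 50 µL/minute. Kd came from a 1:1 binding fit of single-cycle kinetic sensorgrams, with three independent measurements.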"}, "[6]": {"biological_target": "T2, 2-aminoethanethiol dioxygenase (ADO), …", "experiment": "SPR; single-cycle kinetics (1:1 binding model); biotinylated ADO immobilised on a Biotin CAP chip (~2500-3000 RU), cyclic peptide injected; Biacore T200, 4 °C; 20 mM HEPES pH 7.5, 500 mM NaCl, 10 mM DTT, 0.1% tween-20; 50 µL/minute; each cell is one of three independent measurements", "conditions": "both partners purified", "remark": "listed apart in the source"}, "[7]": {"biological_target": "T3, 2-aminoethanethiol dioxygenase (ADO), full-length human, N-terminally His-tagged and biotinylated … (human, UniProt Q96SZ5 1-270, biotin (biotinylated during expression, 0.2 mM biotin added))", "T3 construct": "2-aminoethanethiol dioxygenase (ADO), human, UniProt Q96SZ5, full length; Construct used for RaPID screening and all SPR experiments; No tag cleavage step is described in its purification; also called wild type ADO; biotinylated ADO; source: E. coli Rosetta2(DE3), purified (Ni-NTA, SEC); not shown: biotinylation tag (from the vector pQE80L-Navi), N-terminal, kept", "T3 sequence (looked up)": "T1 sequence (Q96SZ5 1-270)", "experiment": "SPR; single cycle kinetic (SCK) analysis, 1:1 binding model; biotinylated ADO immobilised on a Biotin CAP chip (~2500-3000 RU), cyclic peptides injected; 4 °C; 20 mM HEPES pH 7.5, 500 mM NaCl, 10 mM DTT, 0.1% tween-20; 50 μL/minute", "conditions": "both partners purified"}, "[8]": {"conditions": "RGS5_2-15 substrate, LCMS, 37 °C, average of three independent experiments (n = 3), standard error, read-out: IC50"}},
  "note": "Where “and” joins values, the source holds several entries; their conditions need not be identical. Equal entries are not always repeated. Where two headings read alike, the source gives them in different places. Where a SMILES comes first, the peptide text is derived from it. Bridges are numbered along the chain shown (N, C = ends). Where no end group is shown, it is not given here. Side-chain parts run from the residue outwards. [ ]: non-standard residue; d: D form. Dap = NC[C@H](N)C(=O)O",
  "data": [
    {"molecule": "CC(C)C[C@@H]1NC(=O)[C@H](Cc2ccc(O)cc2)NC(=O)[C@H](CC(C)C)NC(=O)[C@H]([C@@H](C)O)NC(=O)[C@H](C(C)C)NC(=O)[C@H](CC(C)C)NC(=O)[C@H](CC(C)C)NC(=O)[C@H](Cc2ccc(O)cc2)NC(=O)CSC[C@@H](C(N)=O)NC(=O)[C@H](CO)NC(=O)[C@H](CCCNC(=N)N)NC(=O)[C@H](Cc2c[nH]cn2)NC(=O)[C@H]([C@@H](C)O)NC(=O)CNC1=O", "note": "[CP7] ({CH2CO}-YLLVTLYLGTHRSC-NH2; thioether N-14)", "values": [
      {"measurement": "IC50", "setting": "[1]; [8]", "value": "9920 ± 290", "unit": "nM"},
      {"measurement": "KD", "setting": "[2]", "value": "non-specific binding"}
    ]},
    {"molecule": "IL32_(2-15), synthetic peptide corresponding to the methionine excised N-terminus of IL32, residues 2-15 (from UniProt P24001 2-15)", "values": [
      {"measurement": "Kd", "setting": "[3]", "value": 460, "unit": "nM"},
      {"measurement": "Kd", "setting": "[4]", "value": 70, "unit": "nM"}
    ]},
    {"molecule": "CC[C@H](C)[C@@H]1NC(=O)[C@H](Cc2ccc(O)cc2)NC(=O)CSC[C@@H](C(N)=O)NC(=O)[C@H](CCC(N)=O)NC(=O)[C@H](CCCNC(=N)N)NC(=O)[C@H](Cc2c[nH]cn2)NC(=O)[C@H](CO)NC(=O)CNC(=O)[C@H](CC(C)C)NC(=O)[C@H](Cc2c[nH]c3ccccc23)NC(=O)[C@H](CO)NC(=O)[C@H]([C@@H](C)O)NC(=O)[C@H](CCCCN)NC(=O)[C@H](C(C)C)NC1=O", "note": "[CP6-F6S] ({CH2CO}-YIVKTSWLGSHRQC-NH2; thioether N-14)", "values": [
      {"measurement": "IC50", "setting": "[1]; as given in the legend of Fig. 2c (concentration of CP added), read-out: half-maximal inhibitory concentration (IC50)", "value": 200, "unit": "nM"}
    ]},
    {"molecule": "RGS5_(2-15), synthetic peptide corresponding to the methionine excised N-terminus of RGS5, residues 2 to 15 (from UniProt O15539 2-15)", "values": [
      {"measurement": "Kd", "setting": "[3]", "value": 640, "unit": "nM"},
      {"measurement": "Kd", "setting": "[4]", "value": 150, "unit": "nM"}
    ]},
    {"molecule": "CC[C@H](C)[C@@H]1NC(=O)[C@H]([C@@H](C)O)NC(=O)CNC(=O)[C@H](CC(C)C)NC(=O)[C@H](C(C)C)NC(=O)[C@H](Cc2ccc(O)cc2)NC(=O)[C@H](Cc2ccc(O)cc2)NC(=O)[C@H](Cc2ccc(O)cc2)NC(=O)CSC[C@@H](C(N)=O)NC(=O)[C@H](Cc2ccccc2)NC(=O)[C@H](CCCNC(=N)N)NC(=O)[C@H](Cc2ccc(O)cc2)NC(=O)[C@H](CCCNC(=N)N)NC(=O)[C@H](CCCCN)NC(=O)[C@H](C(C)C)NC(=O)[C@H](CC(C)C)NC1=O", "note": "[CP4] ({CH2CO}-YYYVLGTILVKRYRFC-NH2; thioether N-16)", "values": [
      {"measurement": "IC50", "setting": "[1]; [8]", "value": "> 50000", "unit": "nM"},
      {"measurement": "Kd", "setting": "[2]", "value": "1300 ± 140", "unit": "nM"}
    ]},
    {"molecule": "B1", "values": [
      {"measurement": "Kd", "setting": "[5]", "value": "50.9 nM and 50.4 nM and 50.6 nM"},
      {"measurement": "Kd", "setting": "[6]", "value": "28.9 nM and 28.6 nM and 31.2 nM"}
    ]},
    {"molecule": "B2", "values": [
      {"measurement": "Kd", "setting": "[6]", "value": "429 nM and 397 nM and 428 nM"}
    ]},
    {"molecule": "{CH2CO}-YIVKTFW[Dap]([Lys-Ser])GSHRQC (thioether N-14)", "note": "[CP6-L8d-Lys-Ser]", "values": [
      {"measurement": "Kd", "setting": "[7]", "value": 490, "unit": "nM"}
    ]},
    {"molecule": "{CH2CO}-YIVKTFW[Dap]([Phe-Ser])GSHRQC (thioether N-14)", "note": "[CP6-L8d-Phe-Ser]", "values": [
      {"measurement": "Kd", "setting": "[7]", "value": 79, "unit": "nM"}
    ]},
    {"molecule": "{CH2CO}-YIVKTFW[Dap]([Gly-Ser])GSHRQC (thioether N-14)", "note": "[CP6-L8d-Gly-Ser]", "values": [
      {"measurement": "Kd", "setting": "[7]", "value": 150, "unit": "nM"}
    ]}
  ]
}
